Test results published in PMC12040988, “GET3B is involved in chloroplast biogenesis and interacts with the thylakoidal ALB3 and ALB4 insertases” (Plant Cell Reports, 2025).

T1: GST-tagged mature full-length GET3b (GST-Get3b) (Arabidopsis thaliana, UniProt A1L4Y1 68-411)
T1 construct: The results say 'GET3B C-terminally fused to GST'; The name GST-Get3b and the vector pGex-4T-3 fit GST at the N-terminus; also called AtGET3B; source: E. coli Rosetta2(DE3), purified (glutathione-sepharose); not shown: GST, N-terminal, kept
T1 sequence (looked up): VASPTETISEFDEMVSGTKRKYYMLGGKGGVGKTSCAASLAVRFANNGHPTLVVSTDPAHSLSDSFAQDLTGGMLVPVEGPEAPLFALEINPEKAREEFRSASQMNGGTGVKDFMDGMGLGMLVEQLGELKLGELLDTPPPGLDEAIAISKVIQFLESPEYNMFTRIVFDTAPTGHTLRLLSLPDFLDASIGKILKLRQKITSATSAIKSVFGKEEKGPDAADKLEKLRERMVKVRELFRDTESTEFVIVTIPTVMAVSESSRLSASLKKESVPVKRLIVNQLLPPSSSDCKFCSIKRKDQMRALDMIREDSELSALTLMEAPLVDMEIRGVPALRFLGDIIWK


Molecular target: T1, GST-tagged mature full-length GET3b …
Test: pull-down; 50 μg GST-Get3b (or GST) with 20 μg Alb3C-His or Alb4C-His in 120 μl 1x PBS, 10 min at room temperature; held on glutathione resin 30 min, washed with 5 ml PBS, eluted with 10 mM reduced glutathione; immunoblot with antibodies against Alb3, Alb4 or GST
Settings: both partners purified

Binder | binding result
His-tagged C-terminal region of ALB3 (Alb3C-His) (domain or fragment, Arabidopsis thaliana, UniProt Q8LBP4 350-462, looked up, ALB3 of Arabidopsis thaliana, stromal C-terminal region, aa 350-462; also called Alb3-His; source: E. coli Rosetta2(DE3), purified (nickel-nitrilotriacetic acid); not shown: His tag, C-terminal, kept) VYLRKLGGAKPNMDENASKIISAGRAKRSIAQPDDAGERFRQLKEQEKRSKKNKAVAKDTVELVEESQSESEEGSDDEEEEAREGALASSTTSKPLPEVGQRRSKRSKRKRTV | binds
His-tagged C-terminal region of ALB4 (Alb4C-His) (domain or fragment, Arabidopsis thaliana, UniProt Q9FYL3 334-499, looked up, ALB4 (STIC1) of Arabidopsis thaliana, stromal C-terminal region, aa 334-499; source: E. coli Rosetta2(DE3), purified (nickel-nitrilotriacetic acid); not shown: His tag, C-terminal, kept) VWLQKYGGAKNPVEKFTNLVTKEDKTQQIEKSFSEPLVQKSVSELKIPREKGGEKVTPECPKPGERFRLLKEQEAKRRREKEERQKAEAALSNQNTDKAHEQDEKSDTAIVAEDDKKTELSAVDETSDGTVAVNGKPSIQKDETTNGTFGIGHDTEQQHSHETEKR | binds
